Source: publication PMC2191679

B1: OVA55-62/P1K->S (peptide)
peptide: SVVRFDKL
B2: OVA55-62/P3V->I (peptide)
peptide: KVIRFDKL
B3: OVA55-62/P4R->N (peptide)
peptide: KVVNFDKL
B4: OVA55-62/P6D->E (peptide)
peptide: KVVRFEKL
B5: OVA257-264/P1S->K (peptide)
peptide: KIINFEKL
B6: OVA257-264/P3I->V (peptide)
peptide: SIVNFEKL
B7: OVA257-264/P4N->R (peptide)
peptide: SIIRFEKL

These binders were tested against H-2Kb on the surface of RMA-S cells (mouse (endogenous in RMA-S)) (assay: stabilisation of Kb on RMA-S cells).
A relative efficiency of peptide-binding to Kb (parent OVA55-62 = 1) of 2 was found for B1 in this work. A relative efficiency of peptide-binding to Kb (parent OVA55-62 = 1) of 1 was found for B2 in this work. A relative efficiency of peptide-binding to Kb (parent OVA55-62 = 1) of 2 was found for B3 in this work. A relative efficiency of peptide-binding to Kb (parent OVA55-62 = 1) of 10 was found for B4 in this work. A relative efficiency of peptide-binding to Kb (parent OVA257-264 = 1) of 1 was found for B5 in this work. A relative efficiency of peptide-binding to Kb (parent OVA257-264 = 1) of 1 was found for B6 in this work. A relative efficiency of peptide-binding to Kb (parent OVA257-264 = 1) of 1 was found for B7 in this work.
